Experimental data published in IntAct's records for PubMed 19509288.

B1: ATP-dependent RNA helicase SUPV3L1, mitochondrial (Homo sapiens), Q8IYB8 (parent)
chain: MSFSRALLWARLPAGRQAGHRAAICSALRPHFGPFPGVLGQVSVLATASSSASGGSKIPNTSLFVPLTVKPQGPSADGDVGAELTRPLDKNEVKKVLDKFYKRKEIQKLGADYGLDARLFHQAFISFRNYIMQSHSLDVDIHIVLNDICFGAAHADDLFPFFLRHAKQIFPVLDCKDDLRKISDLRIPPNWYPDARAMQRKIIFHSGPTNSGKTYHAIQKYFSAKSGVYCGPLKLLAHEIFEKSNAAGVPCDLVTGEERVTVQPNGKQASHVSCTVEMCSVTTPYEVAVIDEIQMIRDPARGWAWTRALLGLCAEEVHLCGEPAAIDLVMELMYTTGEEVEVRDYKRLTPISVLDHALESLDNLRPGDCIVCFSKNDIYSVSRQIEIRGLESAVIYGSLPPGTKLAQAKKFNDPNDPCKILVATDAIGMGLNLSIRRIIFYSLIKPSINEKGERELEPITTSQALQIAGRAGRFSSRFKEGEVTTMNHEDLSLLKEILKRPVDPIRAAGLHPTAEQIEMFAYHLPDATLSNLIDIFVDFSQVDGQYFVCNMDDFKFSAELIQHIPLSLRVRYVFCTAPINKKQPFVCSSLLQFARQYSRNEPLTFAWLRRYIKWPLLPPKNIKDLMDLEAVHDVLDLYLWLSYRFMDMFPDASLIRDLQKELDGIIQDGVHNITKLIKMSETHKLLNLEGFPSGSQSRLSGTLKSQARRTRGTKALGSKATEPPSPDAGELSLASRLVQQGLLTPDMLKQLEKEWMTQQTEHNKEKTESGTHPKGTRRKKKEPDSD
partner: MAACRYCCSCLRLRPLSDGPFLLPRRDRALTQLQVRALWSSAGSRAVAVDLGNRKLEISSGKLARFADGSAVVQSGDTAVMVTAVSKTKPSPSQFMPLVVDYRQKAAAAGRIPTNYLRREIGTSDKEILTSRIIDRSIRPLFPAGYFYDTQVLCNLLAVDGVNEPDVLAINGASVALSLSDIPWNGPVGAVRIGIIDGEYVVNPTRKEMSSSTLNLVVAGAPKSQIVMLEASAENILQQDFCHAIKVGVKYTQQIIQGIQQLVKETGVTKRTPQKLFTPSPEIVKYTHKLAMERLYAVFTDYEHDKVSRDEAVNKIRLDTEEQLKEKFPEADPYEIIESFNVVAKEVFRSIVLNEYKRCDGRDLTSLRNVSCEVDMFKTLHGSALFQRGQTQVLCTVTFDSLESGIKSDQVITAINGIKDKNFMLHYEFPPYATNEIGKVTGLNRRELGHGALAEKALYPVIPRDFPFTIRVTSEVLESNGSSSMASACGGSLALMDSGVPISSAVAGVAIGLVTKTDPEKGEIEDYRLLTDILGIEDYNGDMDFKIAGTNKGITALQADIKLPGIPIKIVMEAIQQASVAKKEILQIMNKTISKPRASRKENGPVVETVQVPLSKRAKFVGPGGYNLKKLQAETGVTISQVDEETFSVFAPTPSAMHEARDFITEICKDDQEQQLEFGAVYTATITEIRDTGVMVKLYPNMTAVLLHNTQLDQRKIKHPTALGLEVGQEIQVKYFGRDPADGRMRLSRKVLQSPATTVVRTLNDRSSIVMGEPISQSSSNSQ

Variants of: B1
Conditions: with pnpt1_human PNPT1, Q8TCS8

Row | effect of a mutation on the interaction | Variant
1 | with no effect | K213A
